Measurements: patent WO2018134389A1
Read-outs that look alike come from different tables or passages of the source.

Key:
[1] = biological target: DC-SIGN ECD immobilised on a streptactin-functionalised SPR surface (human) (UniProt Q9NNX6)
[2] = biological target: DC-SIGN ECD immobilised on a streptactin-functionalised SPR surface (human) (UniProt Q9NNX6); remark: listed apart in the source

Sequence of DC-SIGN ECD immobilised on a streptactin-functionalised SPR surface (human) (Q9NNX6 59-404): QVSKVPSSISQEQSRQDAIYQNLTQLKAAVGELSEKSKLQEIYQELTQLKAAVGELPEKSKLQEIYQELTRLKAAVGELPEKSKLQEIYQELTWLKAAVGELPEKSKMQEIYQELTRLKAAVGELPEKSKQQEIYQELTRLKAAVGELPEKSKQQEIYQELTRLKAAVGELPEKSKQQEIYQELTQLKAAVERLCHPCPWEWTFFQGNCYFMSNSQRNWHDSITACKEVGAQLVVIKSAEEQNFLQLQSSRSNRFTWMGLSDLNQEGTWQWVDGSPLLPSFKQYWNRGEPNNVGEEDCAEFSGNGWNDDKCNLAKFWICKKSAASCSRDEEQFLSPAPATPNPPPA
Sequence of CHO-derived recombinant CMV glycoprotein B (soluble recombinant HCMV gB), untreated (P13201 25-907 limits assumed): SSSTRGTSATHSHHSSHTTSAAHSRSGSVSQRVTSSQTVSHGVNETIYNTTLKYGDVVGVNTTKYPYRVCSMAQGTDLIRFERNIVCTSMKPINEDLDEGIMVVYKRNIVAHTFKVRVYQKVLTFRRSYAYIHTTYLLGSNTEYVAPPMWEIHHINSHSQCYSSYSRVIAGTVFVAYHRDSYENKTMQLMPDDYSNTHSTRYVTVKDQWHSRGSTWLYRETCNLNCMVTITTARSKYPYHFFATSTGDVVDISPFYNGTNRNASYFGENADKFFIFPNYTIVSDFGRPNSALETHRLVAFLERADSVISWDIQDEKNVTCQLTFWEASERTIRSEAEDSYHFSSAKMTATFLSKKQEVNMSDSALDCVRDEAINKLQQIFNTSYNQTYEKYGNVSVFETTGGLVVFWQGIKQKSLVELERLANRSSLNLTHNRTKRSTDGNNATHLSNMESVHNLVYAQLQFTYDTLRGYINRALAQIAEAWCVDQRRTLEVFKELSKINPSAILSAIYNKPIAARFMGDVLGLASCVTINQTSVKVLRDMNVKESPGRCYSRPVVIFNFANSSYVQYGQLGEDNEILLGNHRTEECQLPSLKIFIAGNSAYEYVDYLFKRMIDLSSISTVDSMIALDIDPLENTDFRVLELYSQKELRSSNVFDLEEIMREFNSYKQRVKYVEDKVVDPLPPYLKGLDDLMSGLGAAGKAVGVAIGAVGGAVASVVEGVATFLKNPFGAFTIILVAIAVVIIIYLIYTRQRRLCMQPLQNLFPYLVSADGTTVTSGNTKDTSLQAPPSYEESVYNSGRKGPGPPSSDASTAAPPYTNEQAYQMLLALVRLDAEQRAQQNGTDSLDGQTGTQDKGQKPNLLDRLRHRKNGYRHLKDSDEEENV
Sequence of HCMV gB treated with a(1-2,3,6)-mannosidase (P13201 25-907 limits assumed): as above

CHO-derived recombinant CMV glycoprotein B (soluble recombinant HCMV gB), untreated (from UniProt P13201 25-907) (ligand)
Kd [1]: 0.014 nM

HCMV gB treated with a(1-2,3,6)-mannosidase (from UniProt P13201 25-907) (ligand)
Kd [2]: 0.149 nM
